In ChEMBL document CHEMBL3425448, “Synthesis of hydrolysis-resistant pyridoxal 5'-phosphate analogs and their biochemical and X-ray crystallographic characterization with the pyridoxal phosphatase chronophin” (Bioorg Med Chem, 2015):

How the values were obtained:
[1] = compound: Cc1ncc(CCP(=O)(O)O)c(CO)c1O; test: (§1) Inhibition of recombinant mouse brain PDXP-mediated pyridoxal 5' phosphate hydrolysis expressed in Escherichia coli BL21 (DE3) cells assessed as enzyme Km at 0.5 mM preincubated for 4 mins followed by substrate addition measured after 2 mins
[2] = compound: Cc1ncc(CCP(=O)(O)O)c(C=O)c1O; test: as §1
[3] = compound: Cc1ncc(/C=C/P(=O)(O)O)c(CO)c1O; test: as §1
[4] = compound: Cc1ncc(/C=C/P(=O)(O)O)c(C=O)c1O; test: as §1
[5] = compound: Cc1ncc(CCP(=O)(O)O)c(CO)c1O; test: (§2) Inhibition of recombinant mouse brain PDXP-mediated pyridoxal 5' phosphate hydrolysis expressed in Escherichia coli BL21 (DE3) cells assessed as ratio of enzyme Kcat/Km at 2 mM preincubated for 4 mins followed by substrate addition measured after 2 mins
[6] = compound: Cc1ncc(CCP(=O)(O)O)c(C=O)c1O; test: as §2
[7] = compound: Cc1ncc(/C=C/P(=O)(O)O)c(CO)c1O; test: as §2
[8] = compound: Cc1ncc(/C=C/P(=O)(O)O)c(C=O)c1O; test: as §2
[9] = compound: Cc1ncc(CCP(=O)(O)O)c(CO)c1O; test: (§3) Inhibition of recombinant mouse brain PDXP-mediated pyridoxal 5' phosphate hydrolysis expressed in Escherichia coli BL21 (DE3) cells assessed as ratio of enzyme Kcat/Km at 0.1 mM preincubated for 4 mins followed by substrate addition measured after 2 mins
[10] = compound: Cc1ncc(CCP(=O)(O)O)c(C=O)c1O; test: as §3
[11] = compound: Cc1ncc(/C=C/P(=O)(O)O)c(CO)c1O; test: as §3
[12] = compound: Cc1ncc(/C=C/P(=O)(O)O)c(C=O)c1O; test: as §3
[13] = compound: Cc1ncc(CCP(=O)(O)O)c(CO)c1O; test: (§4) Inhibition of recombinant mouse brain PDXP-mediated pyridoxal 5' phosphate hydrolysis expressed in Escherichia coli BL21 (DE3) cells assessed as enzyme Kcat at 0.5 mM preincubated for 4 mins followed by substrate addition measured after 2 mins
[14] = compound: Cc1ncc(CCP(=O)(O)O)c(C=O)c1O; test: as §4
[15] = compound: Cc1ncc(/C=C/P(=O)(O)O)c(CO)c1O; test: as §4
[16] = compound: Cc1ncc(/C=C/P(=O)(O)O)c(C=O)c1O; test: as §4
[17] = compound: Cc1ncc(CCP(=O)(O)O)c(CO)c1O; test: (§5) Inhibition of recombinant mouse brain PDXP-mediated pyridoxal 5' phosphate hydrolysis expressed in Escherichia coli BL21 (DE3) cells assessed as enzyme Vmax at 0.1 mM preincubated for 4 mins followed by substrate addition measured after 2 mins
[18] = compound: Cc1ncc(CCP(=O)(O)O)c(C=O)c1O; test: as §5
[19] = compound: Cc1ncc(/C=C/P(=O)(O)O)c(CO)c1O; test: as §5
[20] = compound: Cc1ncc(/C=C/P(=O)(O)O)c(C=O)c1O; test: as §5
[21] = compound: Cc1ncc(CCP(=O)(O)O)c(CO)c1O; test: (§6) Inhibition of recombinant mouse brain PDXP-mediated pyridoxal 5' phosphate hydrolysis expressed in Escherichia coli BL21 (DE3) cells assessed as enzyme Kcat at 2 mM preincubated for 4 mins followed by substrate addition measured after 2 mins
[22] = compound: Cc1ncc(CCP(=O)(O)O)c(C=O)c1O; test: as §6
[23] = compound: Cc1ncc(/C=C/P(=O)(O)O)c(CO)c1O; test: as §6
[24] = compound: Cc1ncc(/C=C/P(=O)(O)O)c(C=O)c1O; test: as §6
[25] = compound: Cc1ncc(CCP(=O)(O)O)c(CO)c1O; test: (§7) Inhibition of recombinant mouse brain PDXP-mediated pyridoxal 5' phosphate hydrolysis expressed in Escherichia coli BL21 (DE3) cells assessed as enzyme Km at 1 mM preincubated for 4 mins followed by substrate addition measured after 2 mins
[26] = compound: Cc1ncc(CCP(=O)(O)O)c(C=O)c1O; test: as §7
[27] = compound: Cc1ncc(/C=C/P(=O)(O)O)c(CO)c1O; test: as §7
[28] = compound: Cc1ncc(/C=C/P(=O)(O)O)c(C=O)c1O; test: as §7
[29] = compound: Cc1ncc(CCP(=O)(O)O)c(CO)c1O; test: (§8) Inhibition of recombinant mouse brain PDXP-mediated pyridoxal 5' phosphate hydrolysis expressed in Escherichia coli BL21 (DE3) cells assessed as enzyme Kcat at 1 mM preincubated for 4 mins followed by substrate addition measured after 2 mins
[30] = compound: Cc1ncc(CCP(=O)(O)O)c(C=O)c1O; test: as §8
[31] = compound: Cc1ncc(/C=C/P(=O)(O)O)c(CO)c1O; test: as §8
[32] = compound: Cc1ncc(/C=C/P(=O)(O)O)c(C=O)c1O; test: as §8
[33] = compound: Cc1ncc(CCP(=O)(O)O)c(CO)c1O; test: (§9) Inhibition of recombinant mouse brain PDXP-mediated pyridoxal 5' phosphate hydrolysis expressed in Escherichia coli BL21 (DE3) cells assessed as enzyme Vmax at 0.5 mM preincubated for 4 mins followed by substrate addition measured after 2 mins
[34] = compound: Cc1ncc(CCP(=O)(O)O)c(C=O)c1O; test: as §9
[35] = compound: Cc1ncc(/C=C/P(=O)(O)O)c(CO)c1O; test: as §9
[36] = compound: Cc1ncc(/C=C/P(=O)(O)O)c(C=O)c1O; test: as §9
[37] = compound: Cc1ncc(CCP(=O)(O)O)c(CO)c1O; test: (§10) Inhibition of recombinant mouse brain PDXP-mediated pyridoxal 5' phosphate hydrolysis expressed in Escherichia coli BL21 (DE3) cells assessed as enzyme Km at 2 mM preincubated for 4 mins followed by substrate addition measured after 2 mins
[38] = compound: Cc1ncc(CCP(=O)(O)O)c(C=O)c1O; test: as §10
[39] = compound: Cc1ncc(/C=C/P(=O)(O)O)c(CO)c1O; test: as §10
[40] = compound: Cc1ncc(/C=C/P(=O)(O)O)c(C=O)c1O; test: as §10
[41] = compound: Cc1ncc(CCP(=O)(O)O)c(CO)c1O; test: (§11) Inhibition of recombinant mouse brain PDXP-mediated pyridoxal 5' phosphate hydrolysis expressed in Escherichia coli BL21 (DE3) cells assessed as enzyme Km at 0.1 mM preincubated for 4 mins followed by substrate addition measured after 2 mins
[42] = compound: Cc1ncc(CCP(=O)(O)O)c(C=O)c1O; test: as §11
[43] = compound: Cc1ncc(/C=C/P(=O)(O)O)c(CO)c1O; test: as §11
[44] = compound: Cc1ncc(/C=C/P(=O)(O)O)c(C=O)c1O; test: as §11
[45] = compound: Cc1ncc(CCP(=O)(O)O)c(CO)c1O; test: (§12) Inhibition of recombinant mouse brain PDXP-mediated pyridoxal 5' phosphate hydrolysis expressed in Escherichia coli BL21 (DE3) cells assessed as enzyme Vmax at 2 mM preincubated for 4 mins followed by substrate addition measured after 2 mins
[46] = compound: Cc1ncc(CCP(=O)(O)O)c(C=O)c1O; test: as §12
[47] = compound: Cc1ncc(/C=C/P(=O)(O)O)c(CO)c1O; test: as §12
[48] = compound: Cc1ncc(/C=C/P(=O)(O)O)c(C=O)c1O; test: as §12
[49] = compound: Cc1ncc(CCP(=O)(O)O)c(CO)c1O; test: (§13) Inhibition of recombinant mouse brain PDXP-mediated pyridoxal 5' phosphate hydrolysis expressed in Escherichia coli BL21 (DE3) cells assessed as enzyme Vmax at 1 mM preincubated for 4 mins followed by substrate addition measured after 2 mins
[50] = compound: Cc1ncc(CCP(=O)(O)O)c(C=O)c1O; test: as §13
[51] = compound: Cc1ncc(/C=C/P(=O)(O)O)c(CO)c1O; test: as §13
[52] = compound: Cc1ncc(/C=C/P(=O)(O)O)c(C=O)c1O; test: as §13
[53] = compound: Cc1ncc(CCP(=O)(O)O)c(CO)c1O; test: (§14) Inhibition of recombinant mouse brain PDXP-mediated pyridoxal 5' phosphate hydrolysis expressed in Escherichia coli BL21 (DE3) cells assessed as ratio of enzyme Kcat/Km at 0.5 mM preincubated for 4 mins followed by substrate addition measured after 2 mins
[54] = compound: Cc1ncc(CCP(=O)(O)O)c(C=O)c1O; test: as §14
[55] = compound: Cc1ncc(/C=C/P(=O)(O)O)c(CO)c1O; test: as §14
[56] = compound: Cc1ncc(/C=C/P(=O)(O)O)c(C=O)c1O; test: as §14
[57] = compound: Cc1ncc(CCP(=O)(O)O)c(CO)c1O; test: (§15) Inhibition of recombinant mouse brain PDXP-mediated pyridoxal 5' phosphate hydrolysis expressed in Escherichia coli BL21 (DE3) cells assessed as enzyme Kcat at 0.1 mM preincubated for 4 mins followed by substrate addition measured after 2 mins
[58] = compound: Cc1ncc(CCP(=O)(O)O)c(C=O)c1O; test: as §15
[59] = compound: Cc1ncc(/C=C/P(=O)(O)O)c(CO)c1O; test: as §15
[60] = compound: Cc1ncc(/C=C/P(=O)(O)O)c(C=O)c1O; test: as §15
[61] = compound: Cc1ncc(CCP(=O)(O)O)c(CO)c1O; test: (§16) Inhibition of recombinant mouse brain PDXP-mediated pyridoxal 5' phosphate hydrolysis expressed in Escherichia coli BL21 (DE3) cells assessed as ratio of enzyme Kcat/Km at 1 mM preincubated for 4 mins followed by substrate addition measured after 2 mins
[62] = compound: Cc1ncc(CCP(=O)(O)O)c(C=O)c1O; test: as §16
[63] = compound: Cc1ncc(/C=C/P(=O)(O)O)c(CO)c1O; test: as §16
[64] = compound: Cc1ncc(/C=C/P(=O)(O)O)c(C=O)c1O; test: as §16

B1: Chronophin (Mus musculus), P60487 (protein)
chain: MARCERLRGAALRDVLGQAQGVLFDCDGVLWNGERIVPGAPELLQRLARAGKNTLFVSNNSRRARPELALRFARLGFAGLRAEQLFSSALCAARLLRQRLSGPPDASGAVFVLGGEGLRAELRAAGLRLAGDPGEDPRVRAVLVGYDEQFSFSRLTEACAHLRDPDCLLVATDRDPWHPLSDGSRTPGTGSLAAAVETASGRQALVVGKPSPYMFQCITEDFSVDPARTLMVGDRLETDILFGHRCGMTTVLTLTGVSSLEEAQAYLTAGQRDLVPHYYVESIADLMEGLED
Km [1]: 83 µM
Km [2]: 170 µM
Km [3]: 77 µM
Km [4]: 170 µM
kcat/Km [5]: 1.2 ×10⁴ /s/M
kcat/Km [6]: 0.5 ×10⁴ /s/M
kcat/Km [7]: 0.9 ×10⁴ /s/M
kcat/Km [8]: 0.4 ×10⁴ /s/M
kcat/Km [9]: 3.3 ×10⁴ /s/M
kcat/Km [10]: 2.7 ×10⁴ /s/M
kcat/Km [11]: 4 ×10⁴ /s/M
kcat/Km [12]: 2.4 ×10⁴ /s/M
kcat [13]: 2 s⁻¹
kcat [14]: 1.7 s⁻¹
kcat [15]: 1.7 s⁻¹
kcat [16]: 1.6 s⁻¹
Vmax [17]: 3740 nmol/min/mg
Vmax [18]: 3590 nmol/min/mg
Vmax [19]: 3300 nmol/min/mg
Vmax [20]: 3580 nmol/min/mg
kcat [21]: 1.7 s⁻¹
kcat [22]: 1.1 s⁻¹
kcat [23]: 1.6 s⁻¹
kcat [24]: 0.9 s⁻¹
Km [25]: 98 µM
Km [26]: 197 µM
Km [27]: 112 µM
Km [28]: 248 µM
kcat [29]: 1.8 s⁻¹
kcat [30]: 1.4 s⁻¹
kcat [31]: 1.7 s⁻¹
kcat [32]: 1.2 s⁻¹
Vmax [33]: 3680 nmol/min/mg
Vmax [34]: 3280 nmol/min/mg
Vmax [35]: 3230 nmol/min/mg
Vmax [36]: 2990 nmol/min/mg
Km [37]: 136 µM
Km [38]: 246 µM
Km [39]: 181 µM
Km [40]: 224 µM
Km [41]: 59 µM
Km [42]: 72 µM
Km [43]: 44 µM
Km [44]: 78 µM
Vmax [45]: 3150 nmol/min/mg
Vmax [46]: 2130 nmol/min/mg
Vmax [47]: 3070 nmol/min/mg
Vmax [48]: 1640 nmol/min/mg
Vmax [49]: 3440 nmol/min/mg
Vmax [50]: 2620 nmol/min/mg
Vmax [51]: 3150 nmol/min/mg
Vmax [52]: 2300 nmol/min/mg
kcat/Km [53]: 2.4 ×10⁴ /s/M
kcat/Km [54]: 1 ×10⁴ /s/M
kcat/Km [55]: 2.2 ×10⁴ /s/M
kcat/Km [56]: 0.9 ×10⁴ /s/M
kcat [57]: 2 s⁻¹
kcat [58]: 1.9 s⁻¹
kcat [59]: 1.8 s⁻¹
kcat [60]: 1.9 s⁻¹
kcat/Km [61]: 1.9 ×10⁴ /s/M
kcat/Km [62]: 0.7 ×10⁴ /s/M
kcat/Km [63]: 1.5 ×10⁴ /s/M
kcat/Km [64]: 0.5 ×10⁴ /s/M
